These results are taken from paper PMC10522976 (Molecular Therapy Oncolytics, 2023).

B1: human recombinant mesothelin (MSLN), residues 296-606, His tag (domain or fragment, UniProt Q13421 296-606, looked up)
chain: EVEKTACPSGKKAREIDESLIFYKKWELEACVDAALLATQMDRVNAIPFTYEQLDVLKHKLDELYPQGYPESVIQHLGYLFLKMSPEDIRKWNVTSLETLKALLEVNKGHEMSPQVATLIDRFVKGRGQLDKDTLDTLTAFYPGYLCSLSPEELSSVPPSSIWAVRPQDLDTCDPRQLDVLYPKARLAFQNMNGSEYFVKIQSFLGGAPTEDLKALSQQNVSMDLATFMKLRTDAVLPLTVAEVQKLLGPHVEGLKAEERHRPVRDWILRQRQDDLDTLGLGLQGGIPNGYLVLDLSMQEALSGTPCLLGP

Some results are limits rather than exact numbers.

The target in assay [1] is VH-Fc 3C9 (VH 3C9 fused with human IgG1 Fc, bivalent) (human). Nature of the assay: SPR.
For another assay, the target named is VH-Fc 3C9-YF750 (human). Nature of the assay: ELISA. A general note: ELISA stands for enzyme-linked immunosorbent assay.
The target in assay [2] is B1. Nature of the assay: SPR. In general terms: In SPR one partner is held on a chip, and binding of the other changes the refractive index at the surface.
In another assay the target is mouse MSLN (Mus musculus, UniProt Q61468). Kind of assay: ELISA.
Chain of mouse MSLN (Q61468 36-600): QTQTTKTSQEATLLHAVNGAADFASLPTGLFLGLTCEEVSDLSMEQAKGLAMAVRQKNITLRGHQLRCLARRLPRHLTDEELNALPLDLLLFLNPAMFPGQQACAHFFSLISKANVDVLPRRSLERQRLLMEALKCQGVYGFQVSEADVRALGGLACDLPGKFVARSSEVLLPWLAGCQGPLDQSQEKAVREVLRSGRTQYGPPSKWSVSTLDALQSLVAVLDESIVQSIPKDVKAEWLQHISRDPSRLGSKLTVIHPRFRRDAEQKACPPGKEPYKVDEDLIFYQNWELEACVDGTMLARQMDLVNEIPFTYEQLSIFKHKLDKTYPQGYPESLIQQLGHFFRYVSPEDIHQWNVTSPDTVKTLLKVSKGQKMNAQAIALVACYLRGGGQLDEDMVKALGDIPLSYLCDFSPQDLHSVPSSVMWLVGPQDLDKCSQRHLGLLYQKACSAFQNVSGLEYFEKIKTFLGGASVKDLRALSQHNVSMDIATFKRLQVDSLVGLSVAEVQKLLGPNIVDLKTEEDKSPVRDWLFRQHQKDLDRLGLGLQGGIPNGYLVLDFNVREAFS
Assay [3] concerns the target B1. Kind of assay: ELISA.

As to B1, the Kd in assay [1] stood at 7 nM. In addition, in the assay with VH-Fc 3C9-YF750, the binding result is “binds”.

B2: VH 3C9 (human antibody heavy chain variable domain) (VHH)
VHH: DVQLVESGGGVVQPGRSLRLSCAASGFTFSSYAMHWVRQAPGKGLEWVSSISGNSLYKYYADSVKGRFTISRDDSTNTLYLQMNSLRAEDTATYYCTRHWAVGNWGQGTLVTVSS
For B2, the Kd in assay [2] is below 3 nM. For the same molecule, in the assay with mouse MSLN, the binding result was “no binding”. For the same molecule, the half-maximal effective concentration (EC50) in assay [3] was below 10 nM.

The EC50 is the concentration needed to bring the measured effect to its halfway point.
